Consider 18 variants from the RNAGym collection of RNA variant scans (doi:10.1021/acssynbio.7b00057).

To fix the notation:
B1: Pistol ribozyme (parent)
chain: GGGUCGUUGUUCCAUAAUCGCGUGGAUAUGGCACGCAAGUUUCUACCGGGCACCGUAAAUGUCCGACUGGAGCCGUUCGGGCGGCUAUAAACAGACCUCAGGCCCGAAGCGUGGCGGCACCUGCCGCCGGUGGUAAAAAAGAUCGGAAGAGCACACGUCU

The data set covers variants of B1. Description: aptazyme ON/OFF ratio, guanine; higher = stronger switching; co-transcriptional cleavage with and without guanine.
For the variant GGGUCGACAUACCAUAAUCGCGUGGAUAUGGCACGCAAGUUUCUACCGGGCACCGUAAAUGUCCGACUGGAGCCGUUCGGGCGGCUAUAAACAGACCUCAGGCCCGAAGCGUGGCGGCACCUGCCGCCGGUGGUAAAAAAGAUCGGAAGAGCACACGUCU [U7A U8C G9A U11A], the “aptazyme ON/OFF ratio” value was found to be 1.25.
On to GGGUCGACAGGAUAUAAUCGCGUGGAUAUGGCACGCAAGUUUCUACCGGGCACCGUAAAUGUCCGACUGGAGCCGUUCGGGCGGCUAUAAACAGACCUCAGGCCCGAAGCGUGGCGGCACCUGCCGCCGGUGGUAAAAAAGAUCGGAAGAGCACACGUCU [U7A U8C G9A U10G U11G C12A C13U], for which the “aptazyme ON/OFF ratio” value turned out to be 1.27.
On to GGGUCGACAGGAGAUAAUCGCGUGGAUAUGGCACGCAAGUUUCUACCGGGCACCGUAAAUGUCCGACUGGAGCCGUUCGGGCGGCUAUAAACAGACCUCAGGCCCGAAGCGUGGCGGCACCUGCCGCCGGUGGUAAAAAAGAUCGGAAGAGCACACGUCU [U7A U8C G9A U10G U11G C12A C13G], for which the “aptazyme ON/OFF ratio” value was found to be 1.15.
Consider GGGUCGACAGGAAAUAAUCGCGUGGAUAUGGCACGCAAGUUUCUACCGGGCACCGUAAAUGUCCGACUGGAGCCGUUCGGGCGGCUAUAAACAGACCUCAGGCCCGAAGCGUGGCGGCACCUGCCGCCGGUGGUAAAAAAGAUCGGAAGAGCACACGUCU [U7A U8C G9A U10G U11G C12A C13A], for which the “aptazyme ON/OFF ratio” value turned out to be 1.39.
Consider GGGUCGACAUAACAUAAUCGCGUGGAUAUGGCACGCAAGUUUCUACCGGGCACCGUAAAUGUCCGACUGGAGCCGUUCGGGCGGCUAUAAACAGACCUCAGGCCCGAAGCGUGGCGGCACCUGCCGCCGGUGGUAAAAAAGAUCGGAAGAGCACACGUCU [U7A U8C G9A U11A C12A], for which the “aptazyme ON/OFF ratio” value was found to be 1.43.
As to GGGUCGACAUAAAAUAAUCGCGUGGAUAUGGCACGCAAGUUUCUACCGGGCACCGUAAAUGUCCGACUGGAGCCGUUCGGGCGGCUAUAAACAGACCUCAGGCCCGAAGCGUGGCGGCACCUGCCGCCGGUGGUAAAAAAGAUCGGAAGAGCACACGUCU [U7A U8C G9A U11A C12A C13A], the “aptazyme ON/OFF ratio” value was 1.31.
Take GGGUCGACAGGUGAUAAUCGCGUGGAUAUGGCACGCAAGUUUCUACCGGGCACCGUAAAUGUCCGACUGGAGCCGUUCGGGCGGCUAUAAACAGACCUCAGGCCCGAAGCGUGGCGGCACCUGCCGCCGGUGGUAAAAAAGAUCGGAAGAGCACACGUCU [U7A U8C G9A U10G U11G C12U C13G]: the “aptazyme ON/OFF ratio” value worked out at 1.33.
With GGGUCGACAGGUUAUAAUCGCGUGGAUAUGGCACGCAAGUUUCUACCGGGCACCGUAAAUGUCCGACUGGAGCCGUUCGGGCGGCUAUAAACAGACCUCAGGCCCGAAGCGUGGCGGCACCUGCCGCCGGUGGUAAAAAAGAUCGGAAGAGCACACGUCU [U7A U8C G9A U10G U11G C12U C13U] the figure was 1.07; with GGGUCGACAGGUAAUAAUCGCGUGGAUAUGGCACGCAAGUUUCUACCGGGCACCGUAAAUGUCCGACUGGAGCCGUUCGGGCGGCUAUAAACAGACCUCAGGCCCGAAGCGUGGCGGCACCUGCCGCCGGUGGUAAAAAAGAUCGGAAGAGCACACGUCU [U7A U8C G9A U10G U11G C12U C13A], 1.29.
Consider GGGUCGACAGGUCAUAAUCGCGUGGAUAUGGCACGCAAGUUUCUACCGGGCACCGUAAAUGUCCGACUGGAGCCGUUCGGGCGGCUAUAAACAGACCUCAGGCCCGAAGCGUGGCGGCACCUGCCGCCGGUGGUAAAAAAGAUCGGAAGAGCACACGUCU [U7A U8C G9A U10G U11G C12U], for which the “aptazyme ON/OFF ratio” value came out at 1.39.
Turning to GGGUCGACAGGGCAUAAUCGCGUGGAUAUGGCACGCAAGUUUCUACCGGGCACCGUAAAUGUCCGACUGGAGCCGUUCGGGCGGCUAUAAACAGACCUCAGGCCCGAAGCGUGGCGGCACCUGCCGCCGGUGGUAAAAAAGAUCGGAAGAGCACACGUCU [U7A U8C G9A U10G U11G C12G], the “aptazyme ON/OFF ratio” value was 1.44.
Consider GGGUCGACAGGACAUAAUCGCGUGGAUAUGGCACGCAAGUUUCUACCGGGCACCGUAAAUGUCCGACUGGAGCCGUUCGGGCGGCUAUAAACAGACCUCAGGCCCGAAGCGUGGCGGCACCUGCCGCCGGUGGUAAAAAAGAUCGGAAGAGCACACGUCU [U7A U8C G9A U10G U11G C12A], for which the “aptazyme ON/OFF ratio” value amounted to 1.11.
For GGGUCGACAGGCGAUAAUCGCGUGGAUAUGGCACGCAAGUUUCUACCGGGCACCGUAAAUGUCCGACUGGAGCCGUUCGGGCGGCUAUAAACAGACCUCAGGCCCGAAGCGUGGCGGCACCUGCCGCCGGUGGUAAAAAAGAUCGGAAGAGCACACGUCU [U7A U8C G9A U10G U11G C13G], the “aptazyme ON/OFF ratio” value amounted to 1.15.
Consider GGGUCGACAGGCAAUAAUCGCGUGGAUAUGGCACGCAAGUUUCUACCGGGCACCGUAAAUGUCCGACUGGAGCCGUUCGGGCGGCUAUAAACAGACCUCAGGCCCGAAGCGUGGCGGCACCUGCCGCCGGUGGUAAAAAAGAUCGGAAGAGCACACGUCU [U7A U8C G9A U10G U11G C13A], for which the “aptazyme ON/OFF ratio” value worked out at 1.25.
As to GGGUCGACAGGCUAUAAUCGCGUGGAUAUGGCACGCAAGUUUCUACCGGGCACCGUAAAUGUCCGACUGGAGCCGUUCGGGCGGCUAUAAACAGACCUCAGGCCCGAAGCGUGGCGGCACCUGCCGCCGGUGGUAAAAAAGAUCGGAAGAGCACACGUCU [U7A U8C G9A U10G U11G C13U], the “aptazyme ON/OFF ratio” value worked out at 1.18.
For GGGUCGACAGGGUAUAAUCGCGUGGAUAUGGCACGCAAGUUUCUACCGGGCACCGUAAAUGUCCGACUGGAGCCGUUCGGGCGGCUAUAAACAGACCUCAGGCCCGAAGCGUGGCGGCACCUGCCGCCGGUGGUAAAAAAGAUCGGAAGAGCACACGUCU [U7A U8C G9A U10G U11G C12G C13U], the “aptazyme ON/OFF ratio” value was 1.12.
As to GGGUCGACAGGGGAUAAUCGCGUGGAUAUGGCACGCAAGUUUCUACCGGGCACCGUAAAUGUCCGACUGGAGCCGUUCGGGCGGCUAUAAACAGACCUCAGGCCCGAAGCGUGGCGGCACCUGCCGCCGGUGGUAAAAAAGAUCGGAAGAGCACACGUCU [U7A U8C G9A U10G U11G C12G C13G], the “aptazyme ON/OFF ratio” value worked out at 1.09.
On to GGGUCGACAGGGAAUAAUCGCGUGGAUAUGGCACGCAAGUUUCUACCGGGCACCGUAAAUGUCCGACUGGAGCCGUUCGGGCGGCUAUAAACAGACCUCAGGCCCGAAGCGUGGCGGCACCUGCCGCCGGUGGUAAAAAAGAUCGGAAGAGCACACGUCU [U7A U8C G9A U10G U11G C12G C13A], for which the “aptazyme ON/OFF ratio” value was found to be 1.42.
